This note sets out measurements from paper PMC12138128, “Thermal proteome profiling (TPP) reveals NAMPT as the anti-glioma target of phenanthroindolizidine alkaloid PF403” (Acta Pharmaceutica Sinica. B, 2025).

This series deals with the molecule itself. Put plainly: crystal structure; cocrystal of recombinant NAMPT with the small molecule PF403, hanging drop vapor diffusion, 1.86 Å; NAMPT seen as a dimer with two PF403 molecules.

B1: nicotinamide phosphoribosyl transferase (NAMPT), recombinant, His-tagged (enzyme, human)
chain: MNPAAEAEFNILLATDSYKVTHYKQYPPNTSKVYSYFECREKKTENSKLRKVKYEETVFYGLQYILNKYLKGKVVTKEKIQEAKDVYKEHFQDDVFNEKGWNYILEKYDGHLPIEIKAVPEGFVIPRGNVLFTVENTDPECYWLTNWIETILVQSWYPITVATNSREQKKILAKYLLETSGNLDGLEYKLHDFGYRGVSSQETAGIGASAHLVNFKGTDTVAGLALIKKYYGTKDPVPGYSVPAAEHSTITAWGKDHEKDAFEHIVTQFSSVPVSVVSDSYDIYNACEKIWGEDLRHLIVSRSTQAPLIIRPDSGNPLDTVLKVLEILGKKFPVTENSKGYKLLPPYLRVIQGDGVDINTLQEIVEGMKQKMWSIENIAFGSGGGLLQKLTRDLLNCSFKCSYVVTNGLGINVFKDPVADPNKRSKKGRLSLHRTPAGNFVTLEEGKGDLEEYGQDLLHTVFKNGKVTKSYSFDEIRKNAQLNIELEAAHH
notes: nicotinamide phosphoribosyl transferase (NAMPT), human; Dimer in the cocrystal structure with the small molecule PF403 (PDB 8Y55); also called recombinant NAMPT; WT NAMPT; source: E. coli BL21 (DE3), pET-28a(+), purified (Ni-NTA)
On to B1, for which the binding result is given as “binds”.
